{
  "source": "patent US20060024698",
  "about": "“Method to protect DNA ends” (published 2006)",
  "key": {"[1]": {"biological_target": "T1, DdrA (DR0423) (Deinococcus radiodurans R1, UniProt Q9RX92 SEQ:1-208)", "T1 sequence": "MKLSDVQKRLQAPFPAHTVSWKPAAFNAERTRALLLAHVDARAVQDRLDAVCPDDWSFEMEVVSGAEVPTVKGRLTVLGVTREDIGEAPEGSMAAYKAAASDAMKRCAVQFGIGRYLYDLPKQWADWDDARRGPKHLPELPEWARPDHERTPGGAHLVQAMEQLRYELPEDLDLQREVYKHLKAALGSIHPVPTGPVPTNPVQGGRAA", "assay": "EMSA; 4 uM DdrA; not disrupted by 1000-2000 fold excess of 5'-extension oligo", "conditions": "tags: untagged, expressed in E. coli from pEAW298; chain copies: 8-10 subunit oligomer in solution by gel filtration (stated); label: 3'-32P ddATP; 18 bp hairpin with 16 nt 3' single-strand extension", "procedure": "Four sets of EMSA assays are presented, with the gels and electrophoresis conditions carefully matched. DNA substrate concentrations are 0.7 nM in each case, reported as total molecules. In each set, the first three lanes have show the effects of the indicated concentration of DdrA protein. […] In set D, the sixth and seventh lanes are identical to the third lane (with 4 μM DdrA protein), except that they have been challenged with a 1000-fold or 2000-fold excess of unlabeled oligo with a 5′ extension, respectively. The unlabeled challenge oligo is the same as that used in reaction set C. (FIG. 7A) Single-strand oligonucleotides (51 nucleotides in length), labelled on the 5′ end. (FIG. 7B) 5′ end-labeled duplex DNA fragments (51 bp). (FIG. 7C) 5′-end-labelled oligonucleotide, with a self-complementary sequence leading to the formation of an 18 bp hairpin and a 15 nucleotide 5′ single strand extension. (FIG. 7D) 3′ end-labelled oligonucleotide, with a self-complementary sequence leading to the formation of an 18 bp hairpin and a 16 nucleotide 3′ single strand extension. The sequences of the single strand extensions in the oligos used in sets C and D are matched, except that an extra adenosine residue has been added to the oligo used in set D during the labelling process."}, "[2]": {"biological_target": "T1, DdrA (DR0423)", "assay": "FP; KD,app; 1.0 nM DNA, 30 C, 30 min", "conditions": "tags: untagged, expressed in E. coli from pEAW298; chain copies: 8-10 subunit oligomer in solution by gel filtration (stated); label: 3' fluorescent tag", "description": "FIG. 9 is a graph of fluorescence anisotropy data for DdrA binding to single-stranded DNA. Increasing concentrations of DdrA protein were incubated with 3′-fluorescently tagged DNA (1.0 nM) at 30° C. for 30 minutes. Samples were analyzed using the Beacons 2000 Fluorescence Polarization System and a curve was generated suing CURVE EXPERT 1.3 software. The K_{D,app} for each substrate is the concentration of DdrA when 50% of the DNA is bound as determined by the generated curve fit."}},
  "data": [
    {"binder": "hairpin with 3' extension (oligo A) (structured_DNA, 3'-terminal ddA added) DNA: TTAACGACCGTCGACCTGCAGGTCGACGGTCGTTAACGTCTCTCAGATTGT", "values": [
      {"measurement": "binding result", "setting": "[1]", "result": "binds"}
    ]},
    {"binder": "GCGTGGGTAATTGTGCTTCAATGGACTGAC (ssDNA)", "note": "[30 nt ssDNA]", "values": [
      {"measurement": "Kd", "setting": "[2]", "result": 406, "unit": "nM"}
    ]},
    {"binder": "GGCCTCGCGGTAGCTGAGCTCGGAGCGCACGATTCGCACTGCTGATGTTC (ssDNA)", "note": "[50 nt ssDNA]", "values": [
      {"measurement": "Kd", "setting": "[2]", "result": 118, "unit": "nM"}
    ]},
    {"binder": "AAGCACAATTACCCACGC (ssDNA)", "note": "[18 nt ssDNA]", "values": [
      {"measurement": "Kd", "setting": "[2]", "result": 640, "unit": "nM"}
    ]}
  ]
}
